Numbering of substitutions follows the chain as printed.
Tests used:
human CD30 [1] = biological target: T1, human CD30 (human, UniProt P28908 19-595); test: flow cytometry, DEL cells, experiment N = 1
T1 construct: The same molecule is used for CD30 on HL/ALCL/NHL cell lines; also called huCD30; TNFRSF8
T1 sequence: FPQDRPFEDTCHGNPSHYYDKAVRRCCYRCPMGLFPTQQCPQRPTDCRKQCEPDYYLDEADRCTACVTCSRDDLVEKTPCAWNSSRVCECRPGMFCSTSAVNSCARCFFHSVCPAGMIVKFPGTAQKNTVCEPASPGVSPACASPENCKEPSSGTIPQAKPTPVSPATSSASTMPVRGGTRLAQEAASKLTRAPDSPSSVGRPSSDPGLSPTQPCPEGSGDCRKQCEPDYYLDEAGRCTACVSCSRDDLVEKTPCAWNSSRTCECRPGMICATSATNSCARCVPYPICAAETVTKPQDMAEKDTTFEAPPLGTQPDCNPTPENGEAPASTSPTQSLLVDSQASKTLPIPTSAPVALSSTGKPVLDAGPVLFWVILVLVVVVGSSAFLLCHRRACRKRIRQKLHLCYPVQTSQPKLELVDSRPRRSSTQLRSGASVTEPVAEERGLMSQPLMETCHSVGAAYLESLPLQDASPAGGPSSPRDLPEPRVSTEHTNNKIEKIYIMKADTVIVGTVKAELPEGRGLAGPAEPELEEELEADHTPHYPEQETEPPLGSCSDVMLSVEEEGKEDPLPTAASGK

cynomolgus monkey CD3 = biological target: T2, cynomolgus monkey CD3 (cynomolgus monkey, UniProt Q95LI5 22-198); test: flow cytometry, cynomolgus monkey T cells (PBMCs)
T2 construct: CD3 endogenously expressed on T cells within cynomolgus monkey PBMCs
Method: Cynomolgus monkey PBMCs (Tebu-Bio, The Netherlands; cat. no. PBMCMFA-10) or purified human T cells were plated in polystyrene 96-well round-bottom plates. T cells were derived from human donor buffy coats (Sanquin, Amsterdam, The Netherlands) and isolated using the RosetteSep human T cell enrichment cocktail (Stemcell Technologies, France, cat. no. 15061) according to manufacturer's instructions. […] After washing twice in staining buffer, cells were incubated in 50 μL secondary R-PE-conjugated goat-anti-human IgG antibody at 4° C. for 30 min (1:400 dilution). After washing twice in staining buffer, T cells were stained for T-cell markers CD3 (1:100; Miltenyi biotec, clone 10D12, conjugated to APC), CD4 (1:50; eBioscience, clone OKT4, conjugated to APC-Cy7), CD8 (1:100; Biolegend, clone RPA-T8, conjugated to AF700) and T-cell activation markers CD69 (1:50; BD Biosciences, clone AB2439, conjugated to FITC), CD25 (1:50; eBioscience, clone BC96, conjugated to PE-Cy7) and CD279/PD1 (1:50; BD Biosciences, clone AEH12.2H7, conjugated to BV605). Single stained samples with Ultracomp beads (5 μL; Invitrogen, cat. no. 01-2222-42) were used for compensation adjustments of the flow cytometer. After 30 min of incubation at 4° C., cells were washed twice with staining buffer, resuspended in 100 μL staining buffer and analyzed using a FACS Fortessa (BD Biosciences). Data were processed using FlowJo (BD Biosciences).

human CD30 [2] = biological target: T1, human CD30; test: flow cytometry, Expi293F cells transfected with human CD30
Method: Cells (3×10⁴ cells/well) were incubated in polystyrene 96-well round-bottom plates (Greiner bio-one, cat. no. 650180) with serial dilutions of antibodies (ranging from 0.005 to 10 μg/mL in 3-fold dilution steps) in 100 μL staining buffer at 4° C. for 30 min. Experiments were performed in technical duplicate. After washing twice in staining buffer, cells were incubated in 50 μL secondary antibody at 4° C. for 30 min. As a secondary antibody, R-PE-conjugated goat-anti-human IgG (Jackson ImmunoResearch, UK; cat. no. 109⁻¹¹⁶-098) diluted 1:400 in staining buffer was used. Cells were washed twice in staining buffer, resuspended in 30 μL staining buffer containing 0.4% EDTA and analyzed on an iQue Screener (Intellicyt Corporation, USA). Binding curves were analyzed using non-linear regression (sigmoidal dose-response with variable slope) using GraphPad Prism V9.0.0 software (GraphPad Software, San Diego, CA, USA).

human CD30 [3] = biological target: T1, human CD30; test: flow cytometry, HDLM-2 cells (HL), range of 3 tests
Method: (§1) Cells (3×10⁴ cells/well) were incubated in polystyrene 96-well round-bottom plates (Greiner bio-one, cat. no. 650180) with serial dilutions of antibodies (range 0.0046 to 10 μg/mL in 3-fold dilution steps) in 50 μL staining buffer at 4° C. for 30 min. After washing twice in staining buffer, cells were incubated with 50 μL secondary antibody at 4° C. for 30 min. […] Next, cells were washed twice in staining buffer, resuspended in 100 μL staining buffer supplemented with TO-PRO-3 iodide (Thermo Fisher Scientific; cat. no. T3605; 1:8000 dilution) and analyzed on a FACSCelesta flow cytometer (BD Biosciences, USA). Live cells were gated based on FSC/SSC and absence of TOPRO-3 staining. Binding curves were analyzed by non-linear regression of log-transformed data (sigmoidal dose-response with variable slope, four parameters) using GraphPad Prism V7.02 software (GraphPad Software, San Diego, CA, USA).

human CD30 [4] = biological target: T1, human CD30; test: flow cytometry, DEL cells (ALCL), average of 3 tests
Method: as §1

human CD30 [5] = biological target: T1, human CD30; test: flow cytometry, KM-H2 cells (HL), average of 3 tests
Method: as §1

human CD30 [6] = biological target: T1, human CD30; test: flow cytometry, L-82 cells (ALCL), average of 2 tests
Method: as §1

human CD30 [7] = biological target: T1, human CD30; test: flow cytometry, L-428 cells (HL), range of 2 tests
Method: as §1

human CD30 [8] = biological target: T1, human CD30; test: flow cytometry, L-1236 cells (HL), range of 3 tests
Method: as §1

human CD30 [9] = biological target: T1, human CD30; test: flow cytometry, KI-JK cells (ALCL), average of 3 tests
Method: as §1

T2 sequence (Q95LI5 22-198): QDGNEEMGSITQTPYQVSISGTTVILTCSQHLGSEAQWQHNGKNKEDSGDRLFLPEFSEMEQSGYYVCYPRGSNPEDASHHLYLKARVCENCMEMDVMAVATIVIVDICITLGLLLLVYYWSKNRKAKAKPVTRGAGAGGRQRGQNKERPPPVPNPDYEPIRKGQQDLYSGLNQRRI

B1: bsG1-huCD3-FEALxCD30-MDX060-FEAR (bispecific antibody, human IgG1, kappa, lambda)
heavy 1: not shown
light 1: not shown
heavy 2: QVQLQQWGAGLLKPSETLSLTCAVYGGSFSAYYWSWIRQPPGKGLEWIGDINHGGGTNYNPSLKSRVTISVDTSKNQFSLKLNSVTAADTAVYYCASLTAYWGQGSLVTVSSASTKGPSVFPLAPSSKSTSGGTAALGCLVKDYFPEPVTVSWNSGALTSGVHTFPAVLQSSGLYSLSSVVTVPSSSLGTQTYICNVNHKPSNTKVDKRVEPKSCDKTHTCPPCPAPEFEGGPSVFLFPPKPKDTLMISRTPEVTCVVVAVSHEDPEVKFNWYVDGVEVHNAKTKPREEQYNSTYRVVSVLTVLHQDWLNGKEYKCKVSNKALPAPIEKTISKAKGQPREPQVYTLPPSREEMTKNQVSLTCLVKGFYPSDIAVEWESNGQPENNYKTTPPVLDSDGSFFLYSRLTVDKSRWQQGNVFSCSVMHEALHNHYTQKSLSLSPG
light 2: DIQMTQSPTSLSASVGDRVTITCRASQGISSWLTWYQQKPEKAPKSLIYAASSLQSGVPSRFSGSGSGTDFTLTISSLQPEDFATYYCQQYDSYPITFGQGTRLEIKRTVAAPSVFIFPPSDEQLKSGTASVVCLLNNFYPREAKVQWKVDNALQSGNSQESVTEQDSKDSTYSLSSTLTLSKADYEKHKVYACEVTHQGLSSPVTKSFNRGEC
notes: also called bsG1-huCD3xCD30-MDX060
- EC50 (human CD30 [1]): 0.302 µg/mL
- EC50 (read off the curve) (cynomolgus monkey CD3): ~0.4 µg/mL
- EC50 (read off the curve) (human CD30 [2]): ~0.09 µg/mL

B2: bsG1-huCD3-FEALxCD30-MDX060-FERR (bispecific antibody, human IgG1, kappa, lambda)
heavy 1: not shown
light 1: not shown
heavy 2: B1 heavy 2 with G231R, A260D
light 2: B1 light 2
notes: Bispecific IgG1 made by controlled Fab-arm exchange; also called bsIgG1-huCD3-FEALxCD30-MDX060-FERR; bsG1-huCD3×CD30-MDX060
- EC50 (human CD30 [3]): 0.125 to 0.221 µg/mL
- EC50 (human CD30 [4]): 0.201 µg/mL
- EC50 (human CD30 [5]): 0.159 µg/mL
- EC50 (human CD30 [6]): 0.2 µg/mL
- EC50 (human CD30 [7]): 0.174 µg/mL
- EC50 (human CD30 [8]): 0.163 to 0.225 µg/mL
- EC50 (human CD30 [9]): 0.191 µg/mL

Source: patent US20260234255A1 (Genmab, published 2026)
